Data from publication PMC7870846, “Incorporation of sensing modalities into de novo designed fluorescence-activating proteins” (Nature Communications, 2021).
Numbering of substitutions follows the chain as printed.

Columns and labels:
[1] = In vitro chromophore titration with DFHBI (fluorescence, single-binding site isotherm fit)
Experimental: Fluorescence endpoints were measured on a Synergy Neo2 hybrid multi-mode reader (BioTek) in flat bottom, black polystyrene, non-binding surface 96-well microplates (Corning 3650). In measuring chromophore-binding affinities (Fig. 1d, e), mFAP2, mFAP2a, and mFAP2b, and mFAP10 were produced by large-scale protein purification and SEC purification. Proteins were aliquoted in eight technical replicates in 200 μL final volumes to 20.0 nM final concentration in ten serial dilutions ( 10 dilution factor) of DFHBI starting from 31.6 μM DFHBI or 31.6 μM DFHBI-1T final concentrations, including an eleventh condition without chromophore. Fluorescence was excited at λex = 468 nm and fluorescence emission measured at λem = 530 nm. Background fluorescence endpoints of wells with identical chromophore concentrations but purified protein replaced with an identical volume of high-salt Tev cleavage buffer were measured, and fluorescence endpoints subtracted from those measured with protein. Background-subtracted data were averaged and the means normalized from 0 to 1 and fit to a single-binding site isotherm function using non-linear least squares fitting to obtain a fitted Kd value (Table 1), and the fit scaled to the maximum mean value (Fig. 1d, e).

[2] = Photophysical characterization: absorbance, excitation/emission spectra, extinction coefficients, quantum yields; type: physicochemical
Experimental: Protein preparation: mFAP2a, mFAP2b, and mFAP10 were produced by large-scale protein purification and SEC purification, and dialyzed overnight into DPBS that was adjusted to pH 7.40 using NaOH.
Chromophore preparation: DFHBI (Lucerna) and DFHBI-1T (Lucerna) were dissolved to 20.0 mM in 100% DMSO, and diluted in DPBS (pH 7.40) to measure absorbances on a Jasco V-750 spectrophotometer at peak absorbance wavelengths (417 nm for DFHBI and 422 nm for DFHBI-1T). Following background subtraction of identical buffer without chromophore, Beer’s Law was used to calculate the molar chromophore concentrations of the stock solutions using previously reported extinction coefficients.
Preparation of protein–chromophore complexes: For quantum yield measurements, 1.00 μM, 836 nM, or 919 nM chromophore solutions in DPBS (pH 7.40) at 4.00 mL final volumes were prepared for the following eight conditions: DFHBI only, DFHBI-1T only, 43.5 µM 6xHis-mFAP10 with DFHBI, 43.5 µM 6xHis-mFAP10 with DFHBI-1T, 134 μM 6xHis-mFAP2a with DFHBI, 134 μM 6xHis-mFAP2a with DFHBI-1T, 206 μM 6xHis-mFAP2b with DFHBI, and 206 μM 6xHis-mFAP2b with DFHBI-1T.
Extinction coefficients: Absorbance spectra of protein–chromophore complexes were first measured with a Thermo Scientific BioMate 3S UV–Vis Spectrophotometer (1 nm interval, 800 nm min^−1). The extinction coefficients were then calculated using Beer’s Law:12 A=ε⋅b⋅c, where A is peak absorbance, ε is extinction coefficient, b is path length (1 cm), and c is concentration (1.00 μM, 836 nM, or 919 nM).
Relative quantum yield: A Perkin-Elmer LS-B Luminescence Spectrophotometer (10 nm bandwidth, 1 nm interval, 100 nm min^−1) was used. The fluorescence emission spectra of the protein–chromophore complexes (in DPBS, pH 7.40) and reference dye Acridine Yellow G (in methanol) were first obtained, and the quantum yield was then calculated using the equation[53]:13 ϕc=ϕr⋅1−10^−Ar(λex)/1−10^−Ac(λex)⋅∫Fc(λ)⋅dλ/∫Fr(λ)⋅dλ⋅nc2/nr2, where ϕ is quantum yield, A(λex) is absorbance at the excitation wavelength λex ( λex = 440 nm), F is fluorescence emission, n is refractive index of the solution (1.3350 for DPBS at pH 7.40 and 1.3284 for methanol), and the subscripts “c” and “r” refer to the protein–chromophore complex measured and the reference dye, respectively. […]
Absolute quantum yield: An integrating sphere instrument (Hamamatsu C9920-12) (6 nm excitation bandwidth, 1 nm interval) and a high-sensitivity photonic multi-channel analyzer (Hamamatsu C10027-01) were used to measure a light emission spectrum. Absolute quantum yields were measured for solutions of protein–chromophore complexes in DPBS (pH 7.40) in which ≥95% of the total chromophore was occupying the protein-binding pocket (Table 1). […]

[3] = Fluorescence intensity assays of mFAP variants; type: biochemical
Experimental: To measure fluorescence intensities of the phenolate form of chromophores, fluorescence was measured on a Synergy Neo2 hybrid multi-mode reader (BioTek) in flat bottom, black polystyrene, non-binding surface 96-well microplates (Corning 3650). Fluorescence intensity was measured in triplicate by exciting at λex = 484 nm and measuring fluorescence emission at λem = 505 nm (or λem = 511 nm for clones harboring the W27 mutation) (Supplementary Fig. 1g, h). The W27 mutation redshifts the peak emission wavelength from λem = ~505 nm to λem = ~511 nm, presumably due to the W27 indole ring donating a hydrogen bond to the imidazolinone moiety of the deprotonated state of DFHBI, which stabilizes the chromophore conjugated π–electron system in the excited state causing the redshift in emission. Fifteen microliters of small-scale purified protein[49] was combined with 185 μL of Na2HPO4-citrate (pH 7.36) buffer supplemented with 150 mM NaCl and 108 nM DFHBI for a final concentration of 100 nM DFHBI. In measuring the excitation spectra from λem = 525 nm of each clone in triplicate (Supplementary Fig. 1i), 30.0 μL of large-scale purified protein[49] was combined with 170 μL of 25.0 mM Tris (pH 8.00) supplemented with 100 mM NaCl and 914 nM DFHBI for a final concentration of 7.77 μM protein and 777 nM DFHBI. In measuring the fluorescence intensity at λex = 484 nm and λem = 509 nm of each clone in triplicate (Supplementary Fig. 1j), 30.0 μL of large-scale purified protein[49] was combined with 170 μL of 25.0 mM Tris (pH 8.00) supplemented with 100 mM NaCl and 653 nM DFHBI for a final concentration of 5.55 μM protein and 555 nM DFHBI. In measuring fluorescence intensity at λex = 468 nm and λem = 530 nm of each clone in technical triplicate (Supplementary Fig. 1k), 24.0 μL of 35.4 µM large-scale purified protein[49] was combined with 1.00 μL of 1.25 µM DFHBI or 1.00 μL of 1.25 µM DFHBI-1T (Lucerna) (from […] chromophore stock solutions dissolved in 0.5% DMSO and 99.5% high-salt Tev cleavage buffer [25.0 mM Tris, 100 mM NaCl, pH 8.00]) for final concentrations of 34.0 μM protein and 50.0 nM chromophore. The mFAP9–DFHBI complex had ~1.1-fold the fluorescence intensity of the mFAP10–DFHBI complex, and the mFAP9–DFHBI-1T complex had ~0.75-fold the fluorescence intensity of the mFAP10–DFHBI-1T complex (Supplementary Fig. 1k). In collecting fluorescence emission spectra by exciting fluorescence at λex = 484 nm and collecting fluorescence emission at λem = 495–650 nm (Supplementary Fig. 6b), and in measuring fluorescence endpoints in techincal triplicate at unique peak excitation and emission wavelengths (Supplementary Fig. 6c), 195 μL of large-scale purified protein[49] was combined with 5.00 μL of 25 mM Tris (pH 8.00) supplemented with 100 mM NaCl and 40.0 μM DFHBI for a final concentration of 10.0 μM protein and 1.00 μM DFHBI.
In measuring fluorescence intensity of small-scale purified proteins[49] (Supplementary Table 1), wells were excited at λex = 488 nm for DFHBI and DFHBI-1T and λex = 505 nm for DFHO, and fluorescence emission measured at λem = 510 nm for DFHBI and DFHBI-1T and λem = 545 nm for DFHO. […]

[4] = Ca2+-responsive mFAP Ca2+ titrations; type: binding
Experimental: In measuring Ca^2+ affinity of mFAPs on a Synergy Neo2 hybrid multi-mode reader (Fig. 4d, e, f and Supplementary Figs. 10c, f, i, 11c, f, i, 13c, f, i, 16b), large-scale purified proteins[49] were aliquoted in technical triplicate to a final concentration of 500 nM with 5.00 μM DFHBI in eleven serial dilutions ( 10 dilution factor) of CaCl2 (Sigma Aldrich) starting from either 900 mM or 90.0 mM CaCl2 (diluted using high-salt Tev cleavage buffer) including a twelfth condition without CaCl2. Final volumes were 200 μL in flat bottom, black polystyrene, non-binding surface 96-well microplates (Corning 3650). Fluorescence endpoints were measured using excitation wavelength λex = 484 nm and emission wavelength λem = 508 nm. Background fluorescence endpoints of wells with identical chromophore and CaCl2 concentrations lacking protein (substituted for equivalent volumes of high-salt Tev cleavage buffer) were measured in technical triplicate, averaged per condition, and subtracted from protein measurement averages of the same conditions.
For Ca^2+ titrations of EF4n_mFAP2a and EF4n_mFAP2b (Supplementary Fig. 13c), a small amount of Chelex 100 sodium form (Sigma Aldrich) was added to purified protein (produced by large-scale protein purification and SEC purification[49]) and nutated at 4 °C overnight. EF4n_mFAP2a was aliquoted in technical triplicate to a final concentration of 8.00 μM with 80.0 μM DFHBI and EF4n_mFAP2b was aliquoted in technical triplicate to a final concentration of 6.25 μM with 43.4 μM DFHBI, in eleven serial dilutions ( 10 dilution factor) of CaCl2 starting from 9.00 mM or 4.00 mM CaCl2 (diluted using high-salt Tev cleavage buffer pre-treated with Chelex 100) including a twelfth condition without CaCl2. Final volumes were 25.0 μL in flat bottom, black polystyrene, non-binding surface 96-well half-area microplates (Corning 3686) or 200 μL in flat bottom, black polystyrene, non-binding surface 96-well microplates (Corning 3650). Fluorescence endpoints were measured for EF4n_mFAP2a using excitation wavelength λex = 478 nm and emission wavelength λem = 520 nm, and for EF4n_mFAP2b using excitation wavelength λex = 484 nm and emission wavelength λem = 508 nm. Background fluorescence endpoints of wells with identical chromophore and CaCl2 concentrations lacking protein (substituted for equivalent volumes of high-salt Tev cleavage buffer) were measured in technical triplicate, averaged per condition, and subtracted from protein measurement averages of the same conditions. For non-linear least squares fitting to obtain Kd values, means were fit to a single-binding site isotherm function where Ca^2+-binding sites were modeled independently with a Hill coefficient of 1.

[5] = biological target: BCL2; design: method as in PMID 27805565; conditions: read-out: dissociation constant (Kd); cited from earlier work

B1: mFAP2a: mFAP2 variant, "a" for affinity (protein)
chain: SRAAQLLPGTWQATFTNEDGQTSQGQWHFQPRSPYTMDIVAQGTISDGRPIVGYGKATVKTPDTLDIDITYPSLGNIKAQGQITMDSPTQFKWDATTKGENDFHGRLTGTLQRQE
For B1, which “higher affinity for DFHBI than DFHBI-1T” value [1] is on record?
The value was ~ 39 fold.

What about the “brighter fluorescence with DFHBI-1T than DFHBI” value [2] of the same molecule?
The value was ~ 2.5 fold.

And the “brighter fluorescence than mFAP2b” value ([3]; low-DFHBI concentration (555 nM))?
Its value is ~ 1.3 fold.

B2: mFAP10: variant from the IN2 combinatorial library (protein)
chain: B1 chain with W27I, W93F
What does the source list for B2?
higher affinity for DFHBI than DFHBI-1T [1]: ~ 2.6 fold; brighter fluorescence with DFHBI-1T than DFHBI [2]: ~ 12 fold

B3: mFAP3: brightest DFHO-binding variant (protein)
chain: B1 chain with Y71W, A79G, A95G
Which “fluorescence intensity with DFHO, lower (dimmer) than mFAP2b with DFHBI” value ([3]; 10.0 µM DFHO vs 10.0 µM DFHBI) does the source give for B3 here?
The value was ~ 10 fold.

B4: EF1p2_mFAP2b: positively allosteric Ca2+-responsive mFAP, one EF-hand motif (protein)
chain: SRAAQLLPGTWQVTMTNEDGQTSQGQWHFQPRSPYTMDIVAQGTISDGRPIVGYGKATVKTPDTLDIDITYPSLGNIKAQGQITMDSPTQFKWDAHYKGDKDGDGYISAAEAAAQGLTGTLQRQE
For B4, which “Ca2+-responsiveness / allostery between DFHBI and Ca2+ binding” value ([4]; Ca2+ titration with excess DFHBI) is on record?
The value was “positive allostery”.

And the Kd ([4]; excess DFHBI compared to protein, Hill coefficient of 1)?
The Kd was 2300 µM.

B5: aBFL1: designed binding partner of BFL1 (protein)
chain: GADPKKVLDKAKDQAENRVRELKQKLEELYKEARKLDLTQEKRKKLEVATLGAVLAAHGDILNAIMQAKEEADKLKKAGLVNSQQLDELKRRLEELKEEALRKASDYGNEFHLKRRYG
Which Kd [5] does the source give for B5 here?
Its Kd is 0.32 ± 0.04 µM.

B6: mFAP2.3: brightest variant of loop7 library (protein)
chain: B1 chain with A13V, F15M, W27M, I39V, A57V, I67V, W93F
For B6, which “increase in fluorescence intensity from the phenolate form of DFHBI from mFAP2.2” value ([3]; pH 7.36) is on record?
The value was ~ 1.1 fold.
